Reference: patent publication US20090297524A1 (DOMANTIS, published 2009)

Molecular target: T1, Recombinant human CD40L (human, UniProt P29965 108-261, limits assumed)
T1 construct: also called CD40 ligand
T1 sequence (looked up): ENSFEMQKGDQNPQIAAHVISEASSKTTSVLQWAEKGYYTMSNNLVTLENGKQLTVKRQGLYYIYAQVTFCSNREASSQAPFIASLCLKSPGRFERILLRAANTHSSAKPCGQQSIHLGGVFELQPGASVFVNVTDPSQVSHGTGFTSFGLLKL
Test: CD40L/CD40-Fc receptor binding assay;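 note: plate assay with coated human CD40-Fc, bound ligand detected via HRP anti-biotin antibody and TMB, OD at 450 nm, lower signal indicates stronger inhibition by dAb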
Experimental: A 96 well Nunc Maxisorp assay plate was coated overnight at 4° C. with 100 μl per well of recombinant human CD40/Fc (R&D Systems) at 0.5 μg/ml in carbonate buffer. The plate was washed 3 times with 300 μl of 0.05% Tween/PBS and 3 times with 300 μl of PBS using a Tecan plate washer. The wells were blocked using 200 μl of PBS containing 2% (w/v) BSA and incubated for a minimum of 1 h at room temperature. The wells were washed as above, then 50 μl of purified dAb protein (or unpurified supernatant containing dAb from a micro-culture expression) was added to each well.
The plate was washed as described above, then 100 μl HRP conjugated anti-biotin antibody (1:5000 dilution in diluent) added to each well and the plate incubated for 1 hr at room temperature. The plate was washed again as described above using a Tecan plate washer and the assay developed using 100 μl of SureBlue 1-Component TMB MicroWell Peroxidase solution (the plate was left at room temperature for up to 20 min). The reaction was stopped by the addition of 100 μl M hydrochloric acid. The OD₄₅₀ₙₘ of the plate was assayed within 30 minutes of acid addition. The OD₄₅₀ₙₘ is proportional to the amount of bound streptavidin-HRP conjugate, therefore the greater the degree of dAb inhibition the lower the OD₄₅₀ₙₘ of the resulting signal.

B1: DOM.120 (other)
VH: EVQLLESGGGLVQPGGSLRLSCAASGFTFRSYTMGWVRQAPGKGLEWVSSINPMGYQTYYADSVKGRFTISRDNSKNTLYLQMNSLRAEDTAVYYCAKHGVGKGTKPHNFDYWGQGTLVTVSS
notes: VH dAb
binding result: binds

B2: DOM.123 (other)
VH: EVQLLESGGGLVQPGGSLRLSCAASGFTFIEYPMRWVRQAPGKGLEWVSLISPSGVFTYYADSVKGRFTISRDNSKNTLYLQMNSLRAEDTAVYYCAKGDESSTFDYWGQGTLVTVSS
notes: VH dAb
binding result: binds

B3: DOM.113 (other)
VH: EVQLLESGGGLVQPGGSLRLSCAASGFTFTEYPMSWVRQAPGKGLEWVSVISPLGFTTYYADSVKGRFTISRDNSKNTLYLQMNSLRAEDTAVYYCAKWTGGSGILNSSFDYWGQGTLVTVSS
notes: VH dAb
binding result: binds

B4: DOM.126 (other)
VH: EVQLLESGGGLVQPGGSLRLSCAASGFTFANYSMSWVRQAPGKGLEWVSSIDRLGTHTYYADSVKGRFTISRDNSKNTLYLQMNSLRAEDTAVYYCAKVLADLIAGHAEFDYWGQGTLVTVSS
notes: VH dAb
binding result: binds

B5: DOM8.111 (other)
VH: EVQLLESGGGLVQPGGSLRLSCAASGFTFERYPMTWVRQAPGKGLEWVSTIHGSGSATYYADSVKGRFTISRDNSKNTLYLQMNSLRAEDTAVYYCAKGPYTSRHNSLGHFDYWGQGTLVTVSS
notes: VH dAb
binding result: binds

B6: DOM.132 (other)
VH: EVQLLESGGGLVQPGGSLRLSCAASGFTFADYDMAWVRQAPGKGLEWVSGIVDDGLMTYYADSVKGRFTISRDNSKNTLYLQMNSLRAEDTAVYYCAKPDVAFDYWGQGTLVTVSN
notes: VH dAb
binding result: binds

B7: DOM.112 (other)
VH: EVQLLESGGGLVQPGGSLRLSCAASGFTFMDYPMGWVRQAPGKGLEWVSSIGPVGMSTYYADSVKGRFTISRDNSKNTLYLQMNSLRAEDTAVYYCAKYGGTSGRHNTKFDYWGQGTLVTVSS
notes: VH dAb
binding result: binds

B8: DOM.124 (other)
VH: EVQLLESGGGLVQPGGSLRLSCAASGFTFKRYDMDWVRQAPGKGLEWVSTIGSSGYPTYYADSVKGRFTISRDNSKNTLYLQMNSLRAEDTAVYYCAERMPGYFPGFARQFDYWGQGTLVTVSS
notes: VH dAb
binding result: binds

B9: DOM.127 (other)
VH: EVQLLESGGGLVQPGGSLRLSCAASGFTFPSYDMAWVRQAPGKGLEWVSGISRSGSMTYYADSVKGRFTISRDNSKNTLYLQMNSLRAEDTAVYYCAKGVDAHVYYMEPFFDYWGQGTLVTVSS
notes: VH dAb
binding result: binds

B10: DOM.115 (other)
VH: EVQLLESGGGLVQPGGSLRLSCAASGFSISYKNMAWVRQAPGKGLEWVSAIKAANGSTYYADSVKGRFTISRDNSKNTLYLQMNSLRAEDTAVYYCATGSQKKRTYTFDFWGQGTLVTVSS
binding result: binds

B11: DOM.114 (other)
VH: EVQLLESGGGLVQPGGSLRLSCAASGFRVSNYDLTWVRQAPGKGLEWVSTISATNGSTYYADSVKGRFTISRDNSKNTLYLQMNSLRAEDTAVYYCAAVTWWLLRHNDNLGFWGQGTLVTVSS
binding result: binds

B12: DOM.125 (other)
VH: EVQLLESGGGLVQPGGSLRLSCAASGFTFWRYAMGWVRQAPGKGLEWVSTINDEGRETYYADSVKGRFTISRDNSKNTLYLQMNSLRAEDTAVYYCAKKRVSSSVNAPYEFDYWGQGTLVTVSS
notes: VH dAb
binding result: binds

B13: DOM-80 (other)
VH: EVQLLESGGGLVQPGGSLRLSCAASGFTFGRYQMAWVRQAPGKGLEWVSSISSDGGGTYYADSVKGRFTISRDNSKNTLYLQMNSLRAEDTAVYYCAKPSRRFDYWGQGTLVTVSS
notes: VH dAb
binding result: binds

B14: DOM.186 (other)
VH: EVQLLESGGGLVQPGGSLRLSCAASGLTFGRYEMAWVRQAPGKGLEWVSSIDSDGWVTYYADSVKGRFTISRDNSKNTLYLQMNSLRAEDTAVYYCAQPDSLFDYWGQGTLVTVSS
notes: VH dAb
binding result: binds

B15: DOM.206 (other)
VH: EVQLLESGGGLVQPGGSLRLSCAASGFTFASYEMTWVRQAPGKGLEWVSGISSDGLSTYYADSVKGRFTISRDNSKNTLYLQMNSLRAEDTAVYYCAKPGVLFDYWGQGTLVTVSS
notes: VH dAb
binding result: binds

B16: DOM.190 (other)
VH: EVQLLESGGGLVQPGGSLRLSCAASGFTFSMYDMHWVRQAPGKGLEWVSTILSDGTDTYYADSVKGRFTISRDNSKNTLYLQMNSLRAEDTAVYYCAKYGAMFDYWGQGTLVTVSS
notes: VH dAb
binding result: binds

B17: DOM-84 (other)
VH: EVQLLESGGGLVQPGGSLRLSCAASGFTFRQYQMAWARQAPGKGLEWVSTIASDGVSTYYADSVKGRFTISRDNSKNTLYLQMNSLRAEDTAVYYCAKVGRDFDYWGQGTLVTVSS
notes: VH dAb
binding result: binds

B18: DOM.134 (other)
VH: EVQLLESGGGLVQPGGSLRLSCAASGFTFADYEMTWVRQAPGKGLEWVSSITSDGVSTYYADSVKGRFTISRDNSKNTLYLQMNSLRAEDTAVYYCAKPSVQFDYWGQGTLVTVSS
notes: VH dAb
binding result: binds

B19: DOM.208 (other)
VH: EVQLLESGGGLVQPGGSLRLSCAASGFTFTEYEMSWVRQAPGKGLEWVSSIDNVGSSTYYADSVKGRFTISRDNSKNTLYLQMNSLRAEDTAVYYCAKPGKLFDYWGQGTLVTVSS
notes: VH dAb
binding result: binds

B20: DOM.128 (other)
VH: EVQLLESGGGLVQPGGSLRLSCAASGFTFERYQMAWVRQAPGKGLEWVSTISSDGGGTYYADSVKGRFTISRDNSKNTLYLQMNSLRAEDTAVYYCAKPGTVFDYWGQGTLVTVSS
notes: VH dAb
binding result: binds

B21: DOM.184 (other)
VH: EVQLLESGGGLVQPGGSLRLSCAASGFTFSDYEMMWVRQAPGKGLEWVSSITSHGGSTYYADSVKGRFTISRDNSKNTLYLQMNSLRAEDTAVYYCAKPDKDFDYWGQGTLVTVSS
notes: VH dAb
binding result: binds

B22: DOM.196 (other)
VH: EVQLLESGGGLVQPGGSLRLSCAASGFTFSGYEMAWVRQAPGKGLEWVSSITDMGDSTYYADSVKGRFTISRDNSKNTLYLQMNSLRAEDTAVYYCAKPGTAFDYWGPGTLVTVSS
notes: VH dAb
binding result: binds

B23: DOM.205 (other)
VH: EVQLLESGGGLVQPGGSLRLSCAASGFTFASYQMAWVRQAPGKGLEWVSGITSGGLSTYYADSVKGRFTISRDNSKNTLYLQMNSLRAEDTAVYYCAKPGRGFDYWGQGTLVTVSS
notes: VH dAb
binding result: binds

B24: DOM.178 (other)
VH: EVQLLESGGGLVQPGGSLRLSCAASGFTFEDFDMAWVRQAPGKGLEWVSSINDQGSLTYYADSVKGRFTISRDNSKNTLYLQMNSLRAEDTAVYYCAKPDQFFDYWGQGTLVTVSS
notes: VH dAb
binding result: binds

B25: DOM.129 (other)
VH: EVQLLESGGGLVQPGGSLRLSCAASGFTFPKYEMAWVRQAPGKGLEWVSSIDGDGKSTYYADSVKGRFTISRDNSKNTLYLQMNSLRAEDTAVYYCAKPDQFFDYWGQGTLVTVSS
notes: VH dAb
binding result: binds

B26: DOM.180 (other)
VH: EVQLLESGGGLVQPGGSLRLSCAASGFTFTDYEMGWVRQAPGKGLEWVSTITSLGESTYYADSVKGRFTISRDNSKNTLYLQMNSLRAEDTAVYYCAKPGRIFDYWGQGTLVTVSS
notes: VH dAb
binding result: binds

B27: DOM.130 (other)
VH: EVQLLESGGGLVQPGGSLRLSCTASGFTFAGYQMSWVRQAPGKGLEWVSSITNEGVSTYYADSVKGRFTISRDNSKNTLYLQMNSLRAEDTAVYYCAKPGKYFDYWGQGTLVTVSS
notes: VH dAb
binding result: binds

B28: DOM.131 (other)
VH: EVQLLESGGGLVQPGGSLRLSCAASGFTFGEYEMVWVRQAPGKGLEWVSSITSDGLSTYYADSVKGRFTISRDNSKNTLYLQMNSLRAEDTAVYYCAKPGIRFDYWGQGTLVTVSS
notes: VH dAb
binding result: binds

B29: DOM-83 (other)
VH: EVQLLESGGGLVQPGGSLRLSCAASGFTFALYQMAWVRQAPGKGLEWVSSIDSSGSDTYYADSVKGRFTISRDNSKNTLYLQMNSLRAEDTAVYYCAKPERDFDYWGQGTLVTVSS
notes: VH dAb
binding result: binds

B30: DOM.100 (other)
VL: DIQMTQSPSSLSASVGDRVTITCRASQNIKHSLRWYQQKPGKAPRLLIYHRSQLQSGVPSRFSGSGSGTDFTLTISSLQPEDFATYYCQQVRHRPYTFGQGTKVEIKR
notes: Vk dAb
binding result: binds

B31: DOM.102 (other)
VL: DIQMTQSPSSLSASVGDRVTITCRASQHIGHHLRWYQQKPGKAPKLLIYHRSHLQSGVPSRFSGSGSGTDFTLTISSLQPEDSATYYCQQWDRPPYTFGQGTKVEIKR
notes: Vk dAb
binding result: binds

B32: DOM.99 (other)
VH: EVQLLESGGGLVQPGGSLRLSCAASGFTFEDYAMSWVRQAPGKGLEWVSTITPGGFWTYYADSVKGRFTISRDNSKNTLYLQMNSLRAEDTAVYYCAKTSSGELQLVEDFDYWGQGTLVTVSS
notes: VH dAb
binding result: binds

B33: DOM.121 (other)
VH: EVQLLESGGGLVQPGGSLRLSCAASGFTFELYRMSWVRQAPGKGLEWVSEISGSGFPTYYADSVKGRFTISRDNSKNTLYLQMNSLRAEDTAVYYCAKSLHDKTQHHQEFDYWGQGTLVTVSS
notes: VH dAb
binding result: binds
